Experimental findings from patent publication EP4223783A2 (dated 2023) are described below.

B1: Anti-CD-52 2C3 A114N mutant antibody (antibody, human IgG1, kappa)
heavy: not shown
light: DIVMTQTPLSLSVTPGQPASISCKSSQSLLYSNGKTYLNWLLQKPGQSPQRLIYLVSKLDSGVPDRFSGSGSGTDFTLKISRVEAEDVGVYYCVQGTHLHTFGQGTRLEIKRTVAAPSVFIFPPSDEQLKSGTASVVCLLNNFYPREAKVQWKVDNALQSGNSQESVTEQDSKDSTYSLSSTLTLSKADYEKHKVYACEVTHQGLSSPVTKSFNRGEC
modifications: additional N-linked glycan at the engineered Asn 114 (Kabat)
notes: Full-length IgG1; mutated heavy chain with the WT 2C3 light chain
B2: Anti-CD-52 2C3 NGT mutant antibody (antibody, human IgG1, kappa)
heavy: not shown
light: DIVMTQTPLSLSVTPGQPASISCKSSQSLLYSNGKTYLNWLLQKPGQSPQRLIYLVSKLDSGVPDRFSGSGSGTDFTLKISRVEAEDVGVYYCVQGTHLHTFGQGTRLEIKRTVAAPSVFIFPPSDEQLKSGTASVVCLLNNFYPREAKVQWKVDNALQSGNSQESVTEQDSKDSTYSLSSTLTLSKADYEKHKVYACEVTHQGLSSPVTKSFNRGEC
notes: Full-length IgG1; NGT added to the C-terminus of the heavy chain; WT 2C3 light chain; also called Add NGT to C-terminal
B3: Anti-CD-52 2C3 S440N mutant antibody (antibody, IgG1)
heavy: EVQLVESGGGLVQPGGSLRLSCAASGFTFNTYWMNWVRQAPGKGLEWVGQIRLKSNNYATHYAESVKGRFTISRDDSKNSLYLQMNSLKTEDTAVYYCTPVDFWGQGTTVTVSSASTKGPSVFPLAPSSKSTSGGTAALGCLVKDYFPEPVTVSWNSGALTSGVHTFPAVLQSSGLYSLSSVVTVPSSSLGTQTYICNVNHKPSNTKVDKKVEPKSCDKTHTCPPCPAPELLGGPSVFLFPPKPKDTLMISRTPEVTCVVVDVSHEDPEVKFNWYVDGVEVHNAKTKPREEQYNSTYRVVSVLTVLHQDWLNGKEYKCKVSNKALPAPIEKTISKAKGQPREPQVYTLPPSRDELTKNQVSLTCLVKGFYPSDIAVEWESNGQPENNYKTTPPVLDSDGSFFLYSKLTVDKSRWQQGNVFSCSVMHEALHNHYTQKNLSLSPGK
light: DIVMTQTPLSLSVTPGQPASISCKSSQSLLYSNGKTYLNWLLQKPGQSPQRLIYLVSKLDSGVPDRFSGSGSGTDFTLKISRVEAEDVGVYYCVQGTHLHTFGQGTRLEIKRTVAAPSVFIFPPSDEQLKSGTASVVCLLNNFYPREAKVQWKVDNALQSGNSQESVTEQDSKDSTYSLSSTLTLSKADYEKHKVYACEVTHQGLSSPVTKSFNRGEC
notes: as for B1
B4: Anti-CD-52 2C3 S442N mutant antibody (antibody, IgG1)
heavy: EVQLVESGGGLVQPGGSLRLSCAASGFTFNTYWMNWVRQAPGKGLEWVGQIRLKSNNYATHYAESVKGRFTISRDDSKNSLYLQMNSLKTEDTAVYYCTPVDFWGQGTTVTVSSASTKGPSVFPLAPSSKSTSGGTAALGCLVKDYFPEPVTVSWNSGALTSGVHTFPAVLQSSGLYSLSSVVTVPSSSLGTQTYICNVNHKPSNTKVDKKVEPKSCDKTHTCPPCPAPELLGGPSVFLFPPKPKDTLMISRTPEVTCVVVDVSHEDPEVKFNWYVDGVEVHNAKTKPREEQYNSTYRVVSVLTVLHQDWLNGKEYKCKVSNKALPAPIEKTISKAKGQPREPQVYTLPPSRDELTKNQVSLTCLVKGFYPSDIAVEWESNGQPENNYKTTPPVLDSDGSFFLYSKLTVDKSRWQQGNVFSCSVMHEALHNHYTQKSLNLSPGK
light: DIVMTQTPLSLSVTPGQPASISCKSSQSLLYSNGKTYLNWLLQKPGQSPQRLIYLVSKLDSGVPDRFSGSGSGTDFTLKISRVEAEDVGVYYCVQGTHLHTFGQGTRLEIKRTVAAPSVFIFPPSDEQLKSGTASVVCLLNNFYPREAKVQWKVDNALQSGNSQESVTEQDSKDSTYSLSSTLTLSKADYEKHKVYACEVTHQGLSSPVTKSFNRGEC
notes: as for B1
B5: Anti-CD-52 2C3 S298N/Y300S mutant antibody (antibody, human IgG1, kappa)
heavy: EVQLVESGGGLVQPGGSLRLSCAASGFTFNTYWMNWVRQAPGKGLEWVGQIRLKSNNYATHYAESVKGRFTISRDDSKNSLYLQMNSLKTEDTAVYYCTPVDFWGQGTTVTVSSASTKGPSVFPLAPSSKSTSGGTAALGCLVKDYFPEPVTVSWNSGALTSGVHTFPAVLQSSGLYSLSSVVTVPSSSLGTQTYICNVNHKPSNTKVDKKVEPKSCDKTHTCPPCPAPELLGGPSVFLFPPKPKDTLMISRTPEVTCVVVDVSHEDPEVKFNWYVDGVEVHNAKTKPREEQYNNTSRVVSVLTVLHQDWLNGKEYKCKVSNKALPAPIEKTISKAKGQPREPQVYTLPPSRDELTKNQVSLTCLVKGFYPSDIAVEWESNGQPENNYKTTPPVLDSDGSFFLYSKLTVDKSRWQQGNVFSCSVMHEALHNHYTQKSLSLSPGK
light: DIVMTQTPLSLSVTPGQPASISCKSSQSLLYSNGKTYLNWLLQKPGQSPQRLIYLVSKLDSGVPDRFSGSGSGTDFTLKISRVEAEDVGVYYCVQGTHLHTFGQGTRLEIKRTVAAPSVFIFPPSDEQLKSGTASVVCLLNNFYPREAKVQWKVDNALQSGNSQESVTEQDSKDSTYSLSSTLTLSKADYEKHKVYACEVTHQGLSSPVTKSFNRGEC
notes: Full-length IgG1; also called S298N/Y300S 2C3 variant; S298/Y300S

T1 sequence (P55899 24-297, chain 1 of 2): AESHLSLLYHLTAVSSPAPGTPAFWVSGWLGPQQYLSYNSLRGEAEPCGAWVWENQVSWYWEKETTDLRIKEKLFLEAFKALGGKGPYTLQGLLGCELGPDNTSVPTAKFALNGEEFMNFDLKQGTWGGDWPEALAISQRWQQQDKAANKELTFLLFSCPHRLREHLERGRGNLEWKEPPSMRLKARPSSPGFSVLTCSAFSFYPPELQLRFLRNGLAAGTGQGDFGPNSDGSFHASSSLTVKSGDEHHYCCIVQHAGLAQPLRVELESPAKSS
T1 sequence (P61769 21-119, chain 2 of 2): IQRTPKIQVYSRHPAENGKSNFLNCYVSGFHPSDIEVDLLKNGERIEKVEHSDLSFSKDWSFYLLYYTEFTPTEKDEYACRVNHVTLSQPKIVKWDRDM

This assay addresses T1, SEC-purified human FcRn-HPC4 (human, UniProt P55899 24-297; P61769 21-119).
T1 construct: Immobilized on a CM5 chip by amine coupling; also called human FcRn receptor; not shown: HPC4 tag
In words: Biacore SPR; antibody at 200, 50 and 10nM over immobilized FcRn.
For B1, the binding result is “binds”.

Regarding B2, the binding result is on record as “binds”.

As to B3, the binding result was “binds”.

Regarding B4, the binding result is “binds”.

B5: the binding result is “binds”.
